Data reported in the supplement of paper PMC7877785.
± gives the uncertainty stated by the source.

Assay: self-splicing fitness, log relative to wild type (ln ratio); higher = more splicing; Tetrahymena group I intron in knt gene, E. coli kanamycin selection, DiMSum; sequences stand for … in CUCUCU…GGAGGGAAAAGUUAUCAGGCAUGCACCUGGUAGCUAGUCUUUAAACCAAUAGAUUGCAUCGGUUUAAAAGGCAAGACCGUCAAAUUGCGGGAAAGGGGUCAACAGCCGUUCAGUACCAAGUCUCAGGGGAAACUUUGAGAUGGCCUUGCAAAGGGUAUGGUAAUAAGCUGACGGACAUGGUCCUAACCACGCAGCCAAGUCCUAAGUCAACAGAUCUUCUGUUGAUAUGGAUGCAGUUCACAGACUAAAUGUCGGUCGGGGAAGAUGUAUUCUUCUCAUAAGAUAUAGUCGGACCUCUCCUUAAUGGGAGCUAGCGGAUGAAGUGAUGCAACACUGGAGCCGCUGGGAACUAAUUUGUAUGCGAAAGUAUAUUGAUUAGUUUUGGAGUACUCGUGGUCG
How it was run: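 Library with all eight P1ex-region intron nucleotides randomised, intron inside the knt kanamycin-resistance gene on pET-22b(+), in E. coli BL21(DE3). Cells grew overnight at 37°C or 30°C on LB agar with or without 25 μg/mL kanamycin (plus 100 μg/mL carbenicillin, 50 μM IPTG, 0.2% rhamnose), in six replicate transformations. Pooled colonies were amplicon-sequenced on Illumina HiSeq 2500. DiMSum fitness is the error-weighted combination of wild-type-normalised replicate fold changes, kanamycin versus none.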

## GCAGAGCAAUAUUACGCGCU
37 °C
  self-splicing fitness (ln): -2.13 ± 0.35

## GGUGAGCAAUAUUACGCUUG
30 °C
  self-splicing fitness (ln): -3.71 ± 0.29
37 °C
  self-splicing fitness (ln): -3.44 ± 0.33

## CUGAAGCAAUAUUACGGUCG
30 °C
  self-splicing fitness (ln): 0.651 ± 0.072
37 °C
  self-splicing fitness (ln): -0.32 ± 0.082

## GAGGAGCAAUAUUACGAUCA
30 °C
  self-splicing fitness (ln): -2.5 ± 0.22
37 °C
  self-splicing fitness (ln): -1.59 ± 0.19

## UCAAAGCAAUAUUACGUGCC
30 °C
  self-splicing fitness (ln): -2.35 ± 0.18
37 °C
  self-splicing fitness (ln): -1.57 ± 0.39

## ACGUAGCAAUAUUACGUGUA
30 °C
  self-splicing fitness (ln): -2.51 ± 0.14
37 °C
  self-splicing fitness (ln): -2.2 ± 0.14

## ACUCAGCAAUAUUACGUCUA
30 °C
  self-splicing fitness (ln): -0.845 ± 0.081
37 °C
  self-splicing fitness (ln): -0.152 ± 0.076

## GACAAGCAAUAUUACGCGAU
30 °C
  self-splicing fitness (ln): -2.96 ± 0.13
37 °C
  self-splicing fitness (ln): -1.02 ± 0.099

## ACUAAGCAAUAUUACGGGGC
30 °C
  self-splicing fitness (ln): -4.09 ± 0.42
37 °C
  self-splicing fitness (ln): -2.79 ± 0.24

## GUUCAGCAAUAUUACGAAGG
30 °C
  self-splicing fitness (ln): -1.55 ± 0.2
37 °C
  self-splicing fitness (ln): -0.421 ± 0.23

## AACUAGCAAUAUUACGCCGA
30 °C
  self-splicing fitness (ln): -1.74 ± 0.18
37 °C
  self-splicing fitness (ln): -0.583 ± 0.18

## AGAGAGCAAUAUUACGUUAU
30 °C
  self-splicing fitness (ln): -2.61 ± 0.18
37 °C
  self-splicing fitness (ln): -2.64 ± 0.48

## CGUCAGCAAUAUUACGAUGU
30 °C
  self-splicing fitness (ln): -1.73 ± 0.11
37 °C
  self-splicing fitness (ln): -1.53 ± 0.098

## GGUAAGCAAUAUUACGAAAC
30 °C
  self-splicing fitness (ln): -1.48 ± 0.14
37 °C
  self-splicing fitness (ln): -0.179 ± 0.12

## GUGUAGCAAUAUUACGAGGU
30 °C
  self-splicing fitness (ln): -2.33 ± 0.44
37 °C
  self-splicing fitness (ln): -1.61 ± 0.49

## GCCCAGCAAUAUUACGUCUG
30 °C
  self-splicing fitness (ln): -3.86 ± 0.14
37 °C
  self-splicing fitness (ln): -2.73 ± 0.17

## GAAGAGCAAUAUUACGGACC
30 °C
  self-splicing fitness (ln): -1.57 ± 0.14
37 °C
  self-splicing fitness (ln): -0.884 ± 0.19

## UAAAAGCAAUAUUACGAGCA
30 °C
  self-splicing fitness (ln): -0.549 ± 0.088
37 °C
  self-splicing fitness (ln): -0.276 ± 0.1

## GCAAAGCAAUAUUACGACGC
30 °C
  self-splicing fitness (ln): -1.27 ± 0.082
37 °C
  self-splicing fitness (ln): -1.2 ± 0.11

## AUUCAGCAAUAUUACGGCUG
30 °C
  self-splicing fitness (ln): -1.86 ± 0.2
37 °C
  self-splicing fitness (ln): -2.59 ± 0.31

## AAUUAGCAAUAUUACGCAGC
30 °C
  self-splicing fitness (ln): -3.15 ± 0.48
37 °C
  self-splicing fitness (ln): -2.21 ± 0.27

## GCAUAGCAAUAUUACGGUAA
30 °C
  self-splicing fitness (ln): -2.31 ± 0.16
37 °C
  self-splicing fitness (ln): -0.658 ± 0.15

## UUGAAGCAAUAUUACGAUCC
37 °C
  self-splicing fitness (ln): -1.38 ± 0.38

## GUGCAGCAAUAUUACGCAGU
30 °C
  self-splicing fitness (ln): -3.58 ± 0.27
37 °C
  self-splicing fitness (ln): -2.4 ± 0.28

## GAAAAGCAAUAUUACGGGCC
30 °C
  self-splicing fitness (ln): -1.09 ± 0.14
37 °C
  self-splicing fitness (ln): -1.37 ± 0.17

## AACUAGCAAUAUUACGAACG
30 °C
  self-splicing fitness (ln): -0.824 ± 0.083
37 °C
  self-splicing fitness (ln): -0.339 ± 0.12

## UACGAGCAAUAUUACGUCUA
30 °C
  self-splicing fitness (ln): -0.512 ± 0.1
37 °C
  self-splicing fitness (ln): -0.152 ± 0.11

## CCCUAGCAAUAUUACGUAAA
37 °C
  self-splicing fitness (ln): -2.22 ± 0.32

## AUCAAGCAAUAUUACGUAUC
30 °C
  self-splicing fitness (ln): -4.11 ± 0.21
37 °C
  self-splicing fitness (ln): -2.76 ± 0.34

## GCCCAGCAAUAUUACGCGAG
30 °C
  self-splicing fitness (ln): -2.72 ± 0.11
37 °C
  self-splicing fitness (ln): -1.73 ± 0.13

## CCUCAGCAAUAUUACGGUUG
30 °C
  self-splicing fitness (ln): -2.28 ± 0.085
37 °C
  self-splicing fitness (ln): -0.828 ± 0.094

## CGUGAGCAAUAUUACGGAGA
30 °C
  self-splicing fitness (ln): -3.88 ± 0.33
37 °C
  self-splicing fitness (ln): -1.57 ± 0.25

## GUCCAGCAAUAUUACGAGAC
30 °C
  self-splicing fitness (ln): -3.46 ± 0.23
37 °C
  self-splicing fitness (ln): -1.82 ± 0.23

## UAUCAGCAAUAUUACGAUGG
30 °C
  self-splicing fitness (ln): -0.913 ± 0.062
37 °C
  self-splicing fitness (ln): 0.0535 ± 0.083

## GUGCAGCAAUAUUACGCUUG
30 °C
  self-splicing fitness (ln): -3.09 ± 0.21
37 °C
  self-splicing fitness (ln): -2.02 ± 0.27

## CUGGAGCAAUAUUACGAGCU
37 °C
  self-splicing fitness (ln): -1.66 ± 0.46

## ACGGAGCAAUAUUACGGCCA
30 °C
  self-splicing fitness (ln): -1.69 ± 0.25
37 °C
  self-splicing fitness (ln): -2.11 ± 0.23

## ACCAAGCAAUAUUACGAUCG
30 °C
  self-splicing fitness (ln): -1.43 ± 0.067
37 °C
  self-splicing fitness (ln): -0.395 ± 0.093

## CAGAAGCAAUAUUACGAUAG
30 °C
  self-splicing fitness (ln): -0.588 ± 0.075
37 °C
  self-splicing fitness (ln): 0.256 ± 0.093

## GUACAGCAAUAUUACGACUC
30 °C
  self-splicing fitness (ln): -0.243 ± 0.06
37 °C
  self-splicing fitness (ln): 0.473 ± 0.068

## CAAUAGCAAUAUUACGCUCU
30 °C
  self-splicing fitness (ln): -3.28 ± 0.24
37 °C
  self-splicing fitness (ln): -1.88 ± 0.17

## AUUAAGCAAUAUUACGUCCA
30 °C
  self-splicing fitness (ln): -0.883 ± 0.098
37 °C
  self-splicing fitness (ln): -0.386 ± 0.12

## AGGAAGCAAUAUUACGAGAA
37 °C
  self-splicing fitness (ln): -1.39 ± 0.32
